Data on 14 molecules can be found in article PMC314469, “Protein Interaction Networks by Proteome Peptide Scanning” (PLoS Biology, 2004).

B1: YFR020W 150-163 (peptide)
chain: AFYYKYYPVEPNSN
B2: YNL093W 69-82 (peptide)
chain: AGQERFAPLAPMYY
B3: YHR147C 183-196 (peptide)
chain: AKLRKFHPPEPYKG
B4: YLR291C 296-309 (peptide)
chain: AGLYKLSPLYPFDV
B5: YJR158W 273-286 (peptide)
chain: AKIDKVSPEDPWVL
B6: YDL245C 273-286 (peptide)
chain: AKINKVSPEDPWVL
B7: YOR219C 612-625 (peptide)
chain: AISKKLGPDTPIKV
B8: YGL063W 287-300 (peptide)
chain: AGPRKYIPRAPAQG
B9: YDL195W 766-779 (peptide)
chain: AKTNKNVPVLPTPG
B10: YLR081W 283-296 (peptide)
chain: AKSNKVSPEDPAVQ
B11: YLR073C 11-24 (peptide)
chain: AKDYRFNPAIPLRI
B12: YLR216C 44-57 (peptide)
chain: AGMAKTKPDVPLSY
B13: YLR430W 1004-1017 (peptide)
chain: AKLHRTKPVKPLSK
B14: YKL064W 452-465 (peptide)
chain: AGHIKTHPNSPTPG

For the first assay, the target named is T1, Yhr016c SH3 (YSC84_YEAST), P32793.
T1 chain: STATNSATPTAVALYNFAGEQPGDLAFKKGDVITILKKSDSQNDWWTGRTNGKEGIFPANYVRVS
Description: SPOT array.
The molecule B1 gave a normalised SPOT signal, Boehringer light units (BLU); mean over the file's lines of this peptide of 74.6.
On the same count and under the same terms, in the case of B2 it was 15.9; in that of B3, 32.7.
The same measure, in the same setting: in the case of B4 it was 17.7; in that of B5, 13.1; in that of B6, 12.2.
B7 displayed a normalised SPOT signal, Boehringer light units (BLU); mean over the file's lines of this peptide of 7.
Still for that read-out and setting: as for B8, the figure is 45.1; as for B9, 30.3; as for B10, 12.5.
Same read-out and setting: in the case of B11 it was 559.
Same read-out and setting: as for B12, the figure is 27.3; as for B13, 42.3; as for B14, 14.3.

The next assay deals with T2, Boi1 SH3 (BOI1_YEAST), P38041.
T2 chain: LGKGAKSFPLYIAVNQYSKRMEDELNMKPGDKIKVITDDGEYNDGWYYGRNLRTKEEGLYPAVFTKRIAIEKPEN
Description: SPOT array.
B1: the normalised SPOT signal, Boehringer light units (BLU); mean over the file's lines of this peptide worked out at 418.
B2 returned a normalised SPOT signal, Boehringer light units (BLU); mean over the file's lines of this peptide of 33.8.
Same read-out and setting: in the case of B3 it was 274.
The same measure, in the same setting: in the case of B4 it was 106; in that of B5, 54.6.
In turn, B6 registered a normalised SPOT signal, Boehringer light units (BLU); mean over the file's lines of this peptide of 117.
Still for that read-out and setting: in the case of B7 it was 466.
Turning to B8, the normalised SPOT signal, Boehringer light units (BLU); mean over the file's lines of this peptide came out at 1440.
Still for that read-out and setting: in the case of B9 it was 1420; in that of B10, 571.
The same measure, in the same setting: in the case of B11 it was 1420.
On the same count and under the same terms, as for B12, the figure is 20.7.
In turn, B13 had a normalised SPOT signal, Boehringer light units (BLU); mean over the file's lines of this peptide of 382.
In turn, B14 gave a normalised SPOT signal, Boehringer light units (BLU); mean over the file's lines of this peptide of 62.8.

The next assay deals with Sho1 SH3 (SHO1_YEAST), P40073. Description: SPOT array.
Chain of Sho1 SH3 (SHO1_YEAST), P40073 (P40073 295-366): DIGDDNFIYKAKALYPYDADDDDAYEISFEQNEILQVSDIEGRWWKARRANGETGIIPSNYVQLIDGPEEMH
Molecule B1 showed a normalised SPOT signal, Boehringer light units (BLU); mean over the file's lines of this peptide of 51.5.
As to B2, the normalised SPOT signal, Boehringer light units (BLU); mean over the file's lines of this peptide is 23.3.
On the same count and under the same terms, as for B3, the figure is 133.
Same read-out and setting: as for B4, the figure is 26.3.
Still for that read-out and setting: as for B5, the figure is 25.7; as for B6, 23.6; as for B7, 18.4.
For the molecule B8, the normalised SPOT signal, Boehringer light units (BLU); mean over the file's lines of this peptide is 63.
The same measure, in the same setting: as for B9, the figure is 91.3; as for B10, 44.1.
On the same count and under the same terms, as for B11, the figure is 208.
The same measure, in the same setting: as for B12, the figure is 52.2; as for B13, 109; as for B14, 163.

The target of the next assay is T3, Yfr024 SH3 (LSB3_YEAST), P43603.
T3 chain: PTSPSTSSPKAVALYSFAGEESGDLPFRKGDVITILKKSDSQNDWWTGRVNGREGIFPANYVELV
Description: SPOT array.
The molecule B1 displayed a normalised SPOT signal, Boehringer light units (BLU); mean over the file's lines of this peptide of 115.
The same measure, in the same setting: in the case of B2 it was 98.8; in that of B3, 128; in that of B4, 0.
On the same count and under the same terms, in the case of B5 it was 33.6; in that of B6, 14.9.
Same read-out and setting: as for B7, the figure is 48.8; as for B8, 233.
On to B9, for which the normalised SPOT signal, Boehringer light units (BLU); mean over the file's lines of this peptide worked out at 97.7.
On the same count and under the same terms, in the case of B10 it was 142; in that of B11, 1400; in that of B12, 87.4.
Still for that read-out and setting: as for B13, the figure is 162.
Still for that read-out and setting: in the case of B14 it was 0.

The target of the next assay is T4, Rvs167 SH3 (RV167_YEAST), P39743.
T4 chain: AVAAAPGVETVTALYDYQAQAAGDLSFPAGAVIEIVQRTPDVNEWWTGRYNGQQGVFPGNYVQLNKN
Description: SPOT array.
In turn, B1 yielded a normalised SPOT signal, Boehringer light units (BLU); mean over the file's lines of this peptide of 25.5.
As to B2, the normalised SPOT signal, Boehringer light units (BLU); mean over the file's lines of this peptide was 102.
In turn, B3 showed a normalised SPOT signal, Boehringer light units (BLU); mean over the file's lines of this peptide of 48.5.
For B4, the normalised SPOT signal, Boehringer light units (BLU); mean over the file's lines of this peptide is 17.9.
Regarding B5, the normalised SPOT signal, Boehringer light units (BLU); mean over the file's lines of this peptide came out at 16.
Consider B6, for which the normalised SPOT signal, Boehringer light units (BLU); mean over the file's lines of this peptide is 39.
On the same count and under the same terms, in the case of B7 it was 14.9.
The same measure, in the same setting: in the case of B8 it was 94.4.
Same read-out and setting: as for B9, the figure is 136; as for B10, 159.
B11: the normalised SPOT signal, Boehringer light units (BLU); mean over the file's lines of this peptide worked out at 534.
Same read-out and setting: in the case of B12 it was 61.7; in that of B13, 34.5; in that of B14, 21.2.

For the next assay, the target named is T5, Myo5 SH3 (MYO5_YEAST), Q04439.
T5 chain: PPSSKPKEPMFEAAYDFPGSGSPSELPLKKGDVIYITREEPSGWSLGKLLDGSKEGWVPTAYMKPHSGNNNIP
Description: SPOT array.
In turn, B1 displayed a normalised SPOT signal, Boehringer light units (BLU); mean over the file's lines of this peptide of 188.
On the same count and under the same terms, as for B2, the figure is 101; as for B3, 119.
Same read-out and setting: as for B4, the figure is 133; as for B5, 248.
On the same count and under the same terms, in the case of B6 it was 121.
In turn, B7 had a normalised SPOT signal, Boehringer light units (BLU); mean over the file's lines of this peptide of 176.
Same read-out and setting: in the case of B8 it was 195; in that of B9, 130; in that of B10, 371.
On the same count and under the same terms, as for B11, the figure is 304; as for B12, 158.
For the molecule B13, the normalised SPOT signal, Boehringer light units (BLU); mean over the file's lines of this peptide was found to be 502.
The same measure, in the same setting: in the case of B14 it was 60.3.

The target of another assay is T6, Boi2 SH3 (BOI2_YEAST), P39969.
T6 chain: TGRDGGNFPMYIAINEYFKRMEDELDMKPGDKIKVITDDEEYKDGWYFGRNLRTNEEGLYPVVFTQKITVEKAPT
Description: SPOT array.
In turn, B1 gave a normalised SPOT signal, Boehringer light units (BLU); mean over the file's lines of this peptide of 52.6.
B2 had a normalised SPOT signal, Boehringer light units (BLU); mean over the file's lines of this peptide of 30.4.
Same read-out and setting: in the case of B3 it was 34.8.
Still for that read-out and setting: in the case of B4 it was 0; in that of B5, 15.6; in that of B6, 12.9.
On the same count and under the same terms, as for B7, the figure is 3.3; as for B8, 39.1; as for B9, 70.7.
Molecule B10 had a normalised SPOT signal, Boehringer light units (BLU); mean over the file's lines of this peptide of 24.3.
Still for that read-out and setting: as for B11, the figure is 30.5; as for B12, 0; as for B13, 4.6.
The molecule B14 yielded a normalised SPOT signal, Boehringer light units (BLU); mean over the file's lines of this peptide of 9.
